Data published in the DeepSol protein solubility set.

test: soluble on expression in E. coli; label from the status in PepcDB or PDB records

Sequence	soluble on expression in E. coli
MEGLARVFLIGGASKAVRYDEQTTIERVIHVVARGIGISQVAVAHFALRLVTGPSPQTAGSGDSLWLHPMLRITQLPHIYARHLPIGVCDEIKLEMRMRFMPQSVYELQATDSSAFVYLHEQVVDEFFSHVAWRSSVEVALEVAALKVCRDFAEHQHNKGADHHLEDLDIEACIQSLIPNVLHNPGFKHSHLKKTFTAYIKKFSATSPNESIIRSLALLLEVVKFDVELFKASLGAGWTKPVELVVGPHTGLSYRLNERCDSSRLLELRTIAEITIRKMENGSEKTLMQLNLSGAAKPVLITLSTEELSQSLAHLLDGYQMLYNQRDSVFKLKGIERCETLTMHEATIRPKTPNNIDSNIRLRRELITLKELIGGGQFGNVYKAVYHDLEKDERIAVAVKVCKTDAEPADTQLILQESSLMRNFRHSNIIQLIGVCVDQPMWLVLELAPKGELREYLQQEKDWLPLRILTLFCSQICDSLVYLHSTRFVHRDIAARNILVCSPQCVKLADFGLSRALDYDAVYTASRGKLPIKWLAPESVNYRQFSMASDVWMFGVCMWEIFSLGVKPWAGVTNSDVIMHIEQGSRPPCPEKCPTALYNFIRSKMWAIEPHKRPTVDQIYAIIEDVRQQIIQNIPPEQIIVGKPMTAAGVIVAEMSSLPGLTLYRTMEDQKRQAEEDAKWLEQEDDEDEDDQDIDQIPSTSHSSVENIRTSNGYLHHTPTSTRSLRFEDKTSRGLRRSVDGVCDAVTKLQNSFNNLTHNDDFLHSVKEVTSQLREMLIVASGMRDRVTTTTQRTDVDMTKTLIANDMKQMSRVMGKLQVNGHQATYNTLRRDVVRICGELAVNCTTLQLQLTQPPLENEFSSLLSNC	not soluble
GPGSMSSSGPLAPPISWAQRPEYVLITIPLQDTTGVSVEIKDEGRELHFACSSPEHKQYACTIHFYGVISSEESQHVVRPRQIELKLRKKFSKSLEDANDDEVEWPRLTKEKSKYPNITIDWSKWKDENDDECAADDLGNFGLSGGDAMDGQYSEMLSQLMQAQGQKDAEESADLPPGTIPGFGSARGQEATHGASAETGDDDGDMPPLEEDT	soluble
MSLAKITGGYTATGSAADTMNALAVDDNQSSSGYDRDSFGFRTTDVDGNGCDVRDDVLARDLTDITYKYAGSCVVESGTLADPYTAQTIHFVRGRATSAKVQIDHVVALENAWQSGARDWSTAKRHEFGNDPYNLMAVDGPANQEKGSASAAYWMPTNADYRCDYVARQIGVKDKYQLTVTSQEKDAMLAVLHTCPGQAVPADEEGHHHHHH	soluble
LKLKDRVKLFLTPQNALFEVLQKYSEDFLNGEEVVKDNFKIDTAAAMSFSAVFACNRVLSETLASCPIMLYEKDDKGNRRQVTDTAEYGVLHYAPNAEMTPVQFKEFGMTNINLGGNFIAQKVFNMHGELLELRPIAWDRVRIDIDKSTGRLLYYIDGKQEPKTRDEIFHIPGLTLDGYIGITPLSYAALTIDIGLSQDTFERNFYHNRASTSGIFQYPNELSDEAFQRLKKDIKKNYTGLSNAGVPMILEGGGQFKEITMKLTDAQFLESKRFRIEDVCRIFRVPLHLVQDLTRSTNNNIEHQSLEFIVYTMLPWFKKWEENLNLQLLSKESRRKNRYFEFNISGLLRGDIKSRYEAYAQGRQWGWLSVNDIRRLENMNPIDNGDRYLEPLNMSEAGKQEEQLKALREEIFNMINERK	soluble
MAHHHHHHMNFLNDEILKKSCEIEKLQDRLLDYESKLLIYENNNEIKILKKNEDHLRKLLSKHIHRNEQLLNTTFLLQKSTLENNSLEKKIIELRAKSYRKDQEIKKLQETKSIRKSPSSNCSHNSQEYSMDLIDDLNEDNYNLKYYHNNSIVGDQENSVYTSKKSYDKNITIGSLADTEKRSIKIKNIIPHSHNNEDPVHFALCEYLNCFKKNNLSIKINKLDDNTYLLNDKKVVISFINGDLYVEDDASPIKLQDYLLKTVVR	soluble
MGRKWANIVAKKTAKDGATSKIYAKFGVEIYAAAKQGEPDPELNTSLKFVIERAKQAQVPKHVIDKAIDKAKGGGDETFVQGRYEGFGPNGSMIIAETLTSNVNRTIANVRTIFNKKGGNIGAAGSVSYMFDNTGVIVFKGTDPDHIFEILLEAEVDVRDVTEEEGNIVIYTEPTDLHKGIAALKAAGITEFSTTELEMIAQSEVELSPEDLEIFEGLVDALEDDDDVQKVYHNVANL	soluble
FVLTPGNPRWENTHLTYRIENYTPDLSREDVDRAIEKAFQLWSNVSPLTFTKVSEGQADIMISFVRGDHRDNSPFDGPGGNLAHAFQPGPGIGGDAHFDEDERWTKNFRDYNLYRVAAHELGHSLGLSHSTDIGALMYPNYIYTGDVQLSQDDIDGIQAIYGPSENPVQPSGPQTPQVCDSKLTFDAITTLRGELMFFKDRFYMRTNSFYPEVELNFISVFWPQVPNGLQAAYEIADRDEVRFFKGNKYWAVRGQDVLYGYPKDIHRSFGFPSTVKNIDAAVFEEDTGKTYFFVAHECWRYDEYKQSMDTGYPKMIAEEFPGIGNKVDAVFQKDGFLYFFHGTRQYQFDFKTKRILTLQKANSWFNCRKN	soluble
MAKLYFYYSTMNAGKSTTLLQSSYNYRERDMNTLVYTAAIDDRFGVGKVTSRIGISQDAFLFRSETNLFDEINEHLKKEKVHCVLVDEAQFLSKQQVYQLSDVVDKLKIPVLCYGLRTDFQAELFEGSKYLLAWADQLEELKTICYCGRKANFVLRLNDQGEVIKEGAQIQIGGNDSYLSVCRLHYKEKCGQILEHHHHHH	soluble
MSAEMTVEGMISVFMKIRKVYADEFGRMLGNETYSPNEISILLFLANNPSIDTNSQLCTCLGVSKALVCRSVDALLGKEMIISVADDHDKRVQHLKLTEHALPVIEQLGGIKRKIDQEILEGIPEEDIANMANTMEKIFARFEERAKGKESSL	not soluble
MEYQHWLREAISQLQASESPRRDAEILLEHVTGRGRTFILAFGETQLTDEQCQQLDALLTRRRDGEPIAHLTGVREFWSLPLFVSPATLIPRPDTECLVEQALARLPEQPCRILDLGTGTGAIALALASERPDCEIIAVDRMPDAVSLAQRNAQHLAIKNIHILQSDWFSALAGQQFAMIVSNPPYIDEQDPHLQQGDVRFEPLTALVAADSGMADIVHIIEQSRNALVSGGFLLLEHGWQQGEAVRQAFILAGYHDVETCRDYGDNERVTLGRYYQ	soluble
MGSDKIHHHHHHMTEATKTDFSKLNVYQKLAYVRQKAPYIQKSKRGQQYSYVGSSDVLSALNTVINQVGLILKPEIVAHQVRESQDEVWKADKVKKEPVAKKRTTYFTELELMMTWINIHNPSEIVACSWYSQGVDIEGEKGVGKALTYAEKYFLLKFFNIATDDDDPDKYQKEQLKNTTITERQIDMLNASISRVAELAGQEFEAVKSLAINDSDLNPKKAFEEYSAYDYGVISKLLAKWINFYESRQKVQEDKK	not soluble
MAHHHHHHMAVVVVQVGQCGNQLGDELWRQLKLTTNSGALPSPFFTRDRRARCVLVDSEPKVVTAVYERQKDVLRAENVIHGQSGRGNHWALGYYGVNDPLSHRAAENAVVARPFQVVKDQRRCDSHVVRNALRAIHAETRRTDDVMEFEAIIVLHSLVGGTGSGMATRLLEKIRYYFIEPLDSSLTVDECEEAEMMRHDGLDGMMMEKRRASYLVSITVAPQAVGELSTQGLNAALTLHALQENANAVLLLRNDDCIRVQEDSCAGGRPRGRGNTSFSTPSFSSIPSCATFKEINEVFLTMLLPILLYGRSTNAVGELVLKCSPNPREINNILTILPTPQRHYLRFKESVTVSRLYVLRGAMQNMPGVYPSVPIELIHTARSLRNPNLVTSREEVQVPKELLKGLKETAATRRSASVTLLQQMEGVLVLNEARELNAAVLFRLLRSAAMKVKAGAFLSTFEDMGMTAECIQAAIREVATRLSAAEEI	not soluble
MSIMSYTGGTVVAMAGDECVCIASDLRIGEQMTTIATDQKKVHKVTDKVYVGLAGFQSDARTVLEKIMFRKNLYELRENRNIKPQVLSEMISNLAYQHRFGSYFTEPLVAGLDDTNKPYICCMDTIGCVSAPRDFVAVGTGQEYLLGVCENFWRENMKPDELFEATAQSILSCLERDAASGWGAVVYTITKDKVNVSTIKARMD	not soluble
NRLLSKYDPQKEAELRTWIEGLTGLSIGPDFQKGLKDGTILCTLMNKLQPGSVPKINRSMQNWHQLENLSNFIKAMVSYGMNPVDLFEANDLFESGNMTQVQVSLLALAGKAKTKGLQSGVDIGVKYSEKQER	soluble
MYQVIKMYGDWEPWWFIDGWQDDIIDEQQFSDWQEALDYFNQEWQRMKAIFPSYHSQKNLLATFWEKEDKRWCEDCDEDLQQFHSLLLLKNKDIVPSNNYIPEFEQRNDSPQVAYLCKLNLLEHHHHHH	soluble
APLKLYGMPLSPNVVRVATVLNEKGLDFEIVPVDLTTGAHKQPDFLALNPFGQIPALVDGDEVLFESRAINRYIASKYASEGTDLLPATASAAKLEVWLEVESHHFYPNASPLVFQLLVRPLLGGAPDAAVVDKHAEQLAKVLDVYEAHLARNKYLAGDEFTLADANHASYLLYLSKTPKAGLVAARPHVKAWWEAIVARPAFQKTVAAIPLPPPP	soluble
THMRCRVYYEDTDSEGVVYHANYLKYCERARSEFFFKQNVLPENEEGVFVIRSIKADFFTPASLGQVLEIRTQIKELRKVFVVLFQEIYCIQNASLEPMKPFKVFASEIKFGFVNRSTYSPIAIPKLFKELLNAI	soluble
MGSDKIHHHHHHMRLTHVDQLNLPFGTLSSYHPYASAPGEAVPVSFDQQRHVGAGERPGSWMAISVSMPKAISREELERAWLEVIERHGTLRTVFSTGMGGEVQQHRIDVGPGKWIDHAVAPGESINEALRAVLNRQCSPYSRPSHSLCIIDAHPRPTVIIGSDHSHVDMWSMLVIVRDLLAALDMELPVEPPLAFESHTAELLAAPPAPERIHQRWREILEAGGGKMPQFPLPLGDAISMPERVEVRDIFGVNGLAIYSARARAQQVSSLALTISVMADVTAALADLPLRAVFPVHSRFDQRWHDSVGWFISNSVIEVPDSDPHTAAQAVREAVSLGSYPLAELLEPWGGMPETPGMFAISWLDLRRLPVSIDDIGLQAQYVSASLRTDGVMLWFILDRSGAHLRCRYPDSLVARENVGRWIDAIVAQMRAEAGTVNLQAGGEQLTLRHGTRADISEIAPLLARNAADPCELVDLEHALDLLTHESSHFLAVVRNARGKIIAAMQLTIVPEFSRGGALHLHIEGPFIIPEYRTTDLDKKLRAWAVEHGRARGVKVEEVVG	not soluble
VNKLSPRFEINEGTYSSFAVAQEGAAPGAGEVRTHRIAVGLYSLIDGSVTRTHRVELDVDSELTEVPELVGVPAADLVIVNDDDLTYCLMQLDPASLAFVVENIDKIADPMARTLCWSAAWEMTRDGSMRARDFVRLIARGAQAETEIAVLERVLMQASRALSSYVDPQWAEQEGSALLADAMLQAARELEPGSDAQLAFVQALAKVKLTDEAAAEFALIAKGSTSLPGVVVDSDLRWWALTALIARGDVPAAEVEQRIAQLLALDKSSAGELAALRAYAAQPSQDVKAKIFAQITDPANSLSNLYLRHKLEGLQFAGSAPYLEQFSESVFELVEPLWKALSSEVAAVTVTGIYPSWDVSAESVERAHAFLDAHPDLPGAARRIISEGAAGQERAVRLRAIDAA	not soluble
